The results in this text go back to patent publication US20240252670A1 (TSINGHUA UNIVERSITY, published 2024).

Substitutions are numbered along the chain they refer to. Numbers in names are those of the source.

The assay concerns the target T1, PD-L1 on the surface of murine cells (MC38, B16, wild-type DC 2.4) (murine, UniProt Q9EP73 19-290).
T1 construct: whole, on cells; also called PD-L1 antigen; Cd274 gene product
As to the kind of experiment: FACS on MC38 cells, FITC-labeled goat anti-human secondary antibody. The source says:
A. The histograms of different colors represent, from top to bottom, the fluorescence signals measured for the negative control (NC) group, the secondary antibody group, the anti-PD-L1 antibody group, the anti-PD-L1 THIOMAB group, and the ADC HE-S2 group, respectively. B. Mean fluorescence intensity (MFI) measured after treatment with different antibody-based drugs on MC38. NC group: the negative control only added with the isotype antibody, with no secondary antibody added for staining; secondary antibody group: the control group added with the isotype antibody and stained with fluorescent secondary antibody. Student's t test was used to compare significant differences between the groups, and p<0.0001 is represented by ****.
With PD-L1 positive MC38 as a platform, the inventors verified whether ADC HE-S2 and the gene-modified anti-PD-L1 THIOMAB retained the original antibody-antigen binding capacity by using a fluorescence activated cell sorting (FACS) technique. In the experiment, ADC HE-S2, anti-PD-L1 antibody (i.e., avelumab as described in Example 2) and anti-PD-L1 THIOMAB (i.e., mutant antibody prepared in Example 2) serving as primary antibodies were incubated with MC38 cells, such that the antibodies could be sufficiently contacted and bind to PD-L1 on the cell surfaces. After washing with PBS, the cells were treated with an FITC-labeled goat anti-human secondary antibody, and incubated in the dark for 30 min to allow the secondary antibody to bind fully to the primary antibodies. Simultaneously, two groups of negative controls were set, wherein one group was marked as a negative control (NC), only isotype control IgG was added to treat the cells, no staining was carried out, and the fluorescent background of the cells was represented; the other group was marked as a secondary antibody, and after addition of isotype control IgG, the secondary antibody was stained with FITC-labeled secondary antibody along with other experimental groups to characterize false positive fluorescence signals generated by non-specific binding of secondary antibodies to the cells. The stained MC38 cells were analyzed on a BD FACSAria™ III flow cytometer, and the strength of FITC fluorescence signals on MC38 cells treated with different antibody-based drugs was detected and compared, so as to characterize the affinity of ADC, THIOMAB and antibodies to PD-L1.

T1 sequence (Q9EP73 19-290): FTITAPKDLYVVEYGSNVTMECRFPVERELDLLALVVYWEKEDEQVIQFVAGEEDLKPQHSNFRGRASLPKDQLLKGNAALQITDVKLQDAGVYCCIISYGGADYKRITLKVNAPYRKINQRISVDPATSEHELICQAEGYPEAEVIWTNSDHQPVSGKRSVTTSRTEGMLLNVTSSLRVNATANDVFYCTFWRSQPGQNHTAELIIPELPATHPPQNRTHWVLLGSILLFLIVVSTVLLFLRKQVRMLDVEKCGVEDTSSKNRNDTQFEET

B1: anti-PD-L1 THIOMAB (avelumab with light chain V205C) (antibody, human IgG1, lambda)
heavy: not shown
light: QSALTQPASVSGSPGQSITISCTGTSSDVGGYNYVSWYQQHPGKAPKLMIYDVSNRPSGVSNRFSGSKSGNTASLTISGLQAEDEADYYCSSYTSSSTRVFGTGTKVTVLGQPKANPTVTLFPPSSEELQANKATLVCLISDFYPGAVTVAWKADGSPVKAGVETTKPSKQSNNKYAASSYLSLTPEQWKSHRSYSCQVTHEGSTCEKTVAPTECS
modifications: engineered cysteine (V205C; Cys 226 of SEQ ID NO: 9) generally capped with a free cysteine in the intact THIOMAB as expressed
notes: also called αPD-L1 THIOMAB LC-V205C
Turning to B1, the MFI turned out to be 449 and the “shift rate of the FITC positive signal relative to the NC group” value turned out to be 36.6%.

B2: anti-PD-L1 antibody avelumab (antibody, human IgG1, lambda)
heavy: not shown
light: B1 light with C206V
notes: also called MSB0010718C; Bavencio
For the molecule B2, the MFI turned out to be 445 and the “shift rate of the FITC positive signal relative to the NC group” value is 35.7%.
